Measured values: patent publication US20140241984A1 (UNITED ARAB EMIRATES UNIVERSITY, published 2014)

Key:
[1] = target: T1, α-synuclein peptide 15 (99-112) (human); test: pepscan ELISA
T1 construct: also called Peptide No. 15
T1 peptide: QLGKNEEGAPQEGI
Method: (§1) To confirm the pepscan results using dot blot the mAbs were also tested by Pepscan using ELISA. […] The plate was washed with PBST and 50 μl of substrate (SuperSignal ELISA Femto Maximum Sensitivity Substrate, Thermo Scientific) was added and immediately read the plate using Victor X3 microtiter plate reader. After the ELISA signals were measured, the plate was also exposed onto X-ray film to develop the spots.

[2] = target: T2, α-synuclein peptide 11 (71-84) (human); test: pepscan ELISA
T2 construct: also called Peptide No. 11
T2 peptide: VTGVTAVAQKTVEG
Method: as §1

[3] = target: T3, α-synuclein peptide 13 (85-98) (human); test: pepscan ELISA
T3 construct: also called Peptide No. 13
T3 peptide: AGSIAAATGFVKKD
Method: as §1

[4] = target: T4, α-synuclein peptide 3 (15-28) (human); test: pepscan ELISA
T4 construct: also called Peptide No. 3
T4 peptide: VVAAAEKTKQGVAE
Method: as §1

[5] = target: T5, α-synuclein peptide 14 (92-105) (human); test: pepscan ELISA
T5 construct: also called Peptide No. 14
T5 peptide: TGFVKKDQLGKNEE
Method: as §1

[6] = target: T6, α-synuclein peptide 10 (64-77) (human); test: pepscan ELISA
T6 construct: also called Peptide No. 10
T6 peptide: TNVGGAVVTGVTAV
Method: as §1

[7] = target: T7, α-synuclein peptide 12 (78-91) (human); test: pepscan ELISA
T7 construct: also called Peptide No. 12
T7 peptide: AQKTVEGAGSIAAA
Method: as §1

[8] = target: T8, α-synuclein peptide 16 (106-119) (human); test: pepscan ELISA
T8 construct: also called Peptide No. 16
T8 peptide: GAPQEGILEDMPVD
Method: as §1

[9] = target: T9, α-synuclein peptide 18 (120-133) (human); test: pepscan ELISA
T9 construct: also called Peptide No. 18
T9 peptide: PDNEAYEMPSEEGY
Method: as §1

[10] = target: T10, α-synuclein peptide 6 (36-49) (human); test: pepscan ELISA
T10 construct: also called Peptide No. 6
T10 peptide: GVLYVGSKTKEGVV
Method: as §1

[11] = target: T11, α-synuclein peptide 7 (43-56) (human); test: pepscan ELISA
T11 construct: also called Peptide No. 7
T11 peptide: KTKEGVVHGVATVA
Method: as §1

[12] = target: T12, α-synuclein peptide 17 (113-126) (human); test: pepscan ELISA
T12 construct: also called Peptide No. 17
T12 peptide: LEDMPVDPDNEAYE
Method: as §1

[13] = target: T13, α-synuclein peptide 2 (8-21) (human); test: pepscan ELISA
T13 construct: also called Peptide No. 2
T13 peptide: LSKAKEGVVAAAEK
Method: as §1

[14] = target: T14, α-synuclein peptide 8 (50-63) (human); test: pepscan ELISA
T14 construct: also called Peptide No. 8
T14 peptide: HGVATVAEKTKEQV
Method: as §1

[15] = target: T15, α-synuclein peptide 9 (57-70) (human); test: pepscan ELISA
T15 construct: also called Peptide No. 9
T15 peptide: EKTKEQVTNVGGAV
Method: as §1

[16] = target: T16, α-synuclein peptide 1 (1-14) (human); test: pepscan ELISA
T16 construct: also called Peptide No. 1
T16 peptide: MDVFMKGLSKAKEG
Method: as §1

fibrils of NAC (61-78) = target: T17, fibrils of NAC (61-78) (human); test: dot blot
T17 construct: also called NAC (61-78) (F)
T17 peptide: EQVTNVGGAVVTGVTAVA
Method: (§2) The membranes were blocked with 5% skimmed milk in PBST (PBS containing 0.05% Tween) and incubated for 1 h at room temperature. […] The membranes were washed and incubated with either 1/20000 diluted goat anti-mouse IgG-HRP (Jackson ImmunoResearch) or 1/10000 diluted goat anti-rabbit IgG-HRP (Jackson Immunoresearch) for 1 h at room temperature. The blots were then developed with Super signal West Pico chemiluminescent substrate.
(§3) C) To test the cross reactivity of our conformational monoclonal antibodies to different fragments of α-synuclein. […] The membranes were washed before incubating with either 1/20000 diluted goat anti-mouse IgG-HRP conjugate (Jackson Immunoresearch) or 1/300000 diluted chicken anti-goat IgG-HRP conjugate (Santa Cruz Biotechnology) for 1 h at room temperature. The blots were then developed with Super signal West Pico chemiluminescent substrate.

A-beta monomers = target: T18, A-beta monomers (UniProt P05067 672-713, limits assumed); test: dot blot
T18 construct: also called β-amyloid monomers
Method: as §2, §3

fibrils of NAC (61-95) = target: T19, fibrils of NAC (61-95) (human); test: dot blot
T19 construct: also called NAC region (61-95) (F)
Method: as §2, §3

β-synuclein fibrils = β-synuclein fibrils (UniProt Q16143 1-134); test: dot blot
Method: as §2, §3

γ-synuclein fibrils = γ-synuclein fibrils (UniProt O76070 1-127); test: dot blot
Method: as §2, §3

IAPP fibrils = target: T20, IAPP fibrils (UniProt P10997 34-70); test: dot blot
T20 construct: Amyloid fibrils of IAPP spotted in the dot blot; also called islet amyloid polypeptide
T20 peptide (looked up): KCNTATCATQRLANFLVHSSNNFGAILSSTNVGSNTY
Method: as §2, §3

γ-synuclein monomers = γ-synuclein monomers (UniProt O76070 1-127); test: dot blot
Method: as §2, §3

A-beta fibrils = target: T21, A-beta fibrils (UniProt P05067 672-713, limits assumed); test: dot blot
T21 construct: Amyloid fibrils of A-beta spotted in the dot blot; also called β-amyloid
Method: as §2, §3

β-synuclein monomers = β-synuclein monomers (UniProt Q16143 1-134); test: dot blot
Method: as §2, §3

IAPP monomers = target: T22, IAPP monomers (UniProt P10997 34-70); test: dot blot
T22 peptide (looked up): T20 peptide (looked up)
Method: as §2, §3

Chain of γ-synuclein fibrils (O76070 whole entry): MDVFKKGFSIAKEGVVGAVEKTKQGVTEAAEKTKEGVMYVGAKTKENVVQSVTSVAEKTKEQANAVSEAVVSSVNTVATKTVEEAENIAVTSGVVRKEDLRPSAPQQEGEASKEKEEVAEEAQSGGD
Chain of γ-synuclein monomers (O76070 whole entry): as above
Chain of β-synuclein fibrils (Q16143 whole entry): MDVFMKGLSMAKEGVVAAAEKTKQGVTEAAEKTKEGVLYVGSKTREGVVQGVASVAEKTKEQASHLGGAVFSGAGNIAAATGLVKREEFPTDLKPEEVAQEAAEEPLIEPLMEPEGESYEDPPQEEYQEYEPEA
Chain of β-synuclein monomers (Q16143 whole entry): as above

B1: Syn-F1 (antibody, V domains shown)
VH: DVQLVESGGDLVQPGGSRKLSCAASGFTFSSFGMHWVRQAPEKGLEWVAYINSGSSTIYYADTVKGRFTISRDNPKNTLFLQMTSLRSEDTAMYYCARGNNPGTGYYYSMDYWGQGTSVTVSS
VL: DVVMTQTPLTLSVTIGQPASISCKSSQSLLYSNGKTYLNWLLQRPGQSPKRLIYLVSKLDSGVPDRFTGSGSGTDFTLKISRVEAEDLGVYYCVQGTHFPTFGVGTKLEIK
notes: also called mAb Syn-F1
binding result [1]: no binding (tested: 100 ng/ml antibody, 500 ng/well peptide)
binding result [2]: no binding (tested: 100 ng/ml antibody, 500 ng/well peptide)
binding result [3]: no binding (tested: 100 ng/ml antibody, 500 ng/well peptide)
binding result [4]: no binding (tested: 100 ng/ml antibody, 500 ng/well peptide)
binding result [5]: no binding (tested: 100 ng/ml antibody, 500 ng/well peptide)
binding result [6]: no binding (tested: 100 ng/ml antibody, 500 ng/well peptide)
binding result [7]: no binding (tested: 100 ng/ml antibody, 500 ng/well peptide)
binding result [8]: no binding (tested: 100 ng/ml antibody, 500 ng/well peptide)
binding result [9]: no binding (tested: 100 ng/ml antibody, 500 ng/well peptide)
binding result [10]: no binding (tested: 100 ng/ml antibody, 500 ng/well peptide)
binding result [11]: no binding (tested: 100 ng/ml antibody, 500 ng/well peptide)
binding result [12]: no binding (tested: 100 ng/ml antibody, 500 ng/well peptide)
binding result [13]: no binding (tested: 100 ng/ml antibody, 500 ng/well peptide)
binding result [14]: no binding (tested: 100 ng/ml antibody, 500 ng/well peptide)
binding result [15]: no binding (tested: 100 ng/ml antibody, 500 ng/well peptide)
binding result [16]: no binding (tested: 100 ng/ml antibody, 500 ng/well peptide)
binding result (fibrils of NAC (61-78)): no binding (tested: 50 ng spotted)
binding result (A-beta monomers): no binding (tested: 50 ng/ml antibody, 50 ng spotted)
binding result (fibrils of NAC (61-95)): no binding (tested: 50 ng spotted)
binding result (β-synuclein fibrils): no binding (tested: 50 ng spotted)
binding result (γ-synuclein fibrils): no binding (tested: 50 ng spotted)
binding result (IAPP fibrils): no binding (tested: 50 ng/ml antibody, 50 ng spotted)
binding result (γ-synuclein monomers): no binding (tested: 50 ng spotted)
binding result (A-beta fibrils): no binding (tested: 50 ng/ml antibody, 50 ng spotted)
binding result (β-synuclein monomers): no binding (tested: 50 ng spotted)
binding result (IAPP monomers): no binding (tested: 50 ng/ml antibody, 50 ng spotted)
